Measurements reported in the supplement of paper PMC10567573.

B1: ADAMTSL2 (parent)
chain: KKPPEESTCFERPCFKWYTSPWSE
B2: RHOBTB1 (parent)
chain: TFGDHHKDRRFAYGRSDVVVLCFS

Variants of: B1
Assay: protein stability index of a GFP-peptide fusion (GPS, HEK-293T) (PSI 1-6); higher = more stable
Details: c terminus: a fixed tail appended
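Note: lentivirally expressed fusions sorted by FACS into six bins by GFP to DsRed ratio, PSI derived from sequencing read proportions per bin multiplied by bin number.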

Variant	protein stability index
Y18T	3
Y18W	2.57
Y18K	3.04
Y18G	2.99
Y18C	2.33
Y18H	2.97
Y18S	3.18
Y18M	2.38
Y18F	1.86
Y18I	2.15
Y18V	2.22
Y18N	2.81
Y18P	3.02
Y18R	2.71
Y18A	2.87
Y18E	3.15
Y18Q	2.58
Y18L	2.45
Y18D	3.48
C14W	1.9
C14Y	2.02
F15L	1.61
F15N	2.63
F15E	3.25

Variant	protein stability index
F15M	2.06
F15K	2.64
F15Y	2.77
F15T	2.89
F15A	2.75
F15C	2.93
F15W	2.25
F15S	2.6
F15G	2.25
F15I	2.79
F15V	2.87
F15Q	2.63
F15D	3.26
F15H	2.6
F15P	2.31
F15R	2
T19Y	1.84
T19Q	1.89
T19H	2.65
T19C	2.13
T19N	3.43
T19V	2.78
T19W	2.05
T19M	2.2

Variant	protein stability index
T19A	2.28
T19K	2.03
T19F	2.28
T19P	2.86
T19S	3.24
T19D	2.65
T19G	2.82
T19L	2.73
T19I	2.35
T19E	3.38
T19R	2.22
W22M	2.6
W22C	3.35
W22G	3.51
W22R	2.95
W22Q	3.82
W22A	4.34
W22L	3.07
W22N	3.28
W22H	3.6
W22I	3.03
W22Y	3.05
W22D	3.79
W22S	3.61

Variant	protein stability index
W22T	3.97
W22F	2.98
W22P	4
W22V	3.27
W22K	3.6
W22E	4.18
W17Y	2.86
W17M	2.9
W17H	2.57
W17T	2.9
W17L	2.37
W17S	3.33
W17N	3.42
W17G	3.35
W17V	2.52
W17K	3.53
W17R	2.96
W17D	3.6
W17C	2.56
W17I	2.46
W17E	3.19
W17F	2.88
W17P	3.5
W17Q	2.85

Variant	protein stability index
W17A	3.79
S20Q	2.35
S20T	2.15
S20R	2.86
S20F	2.02
S20P	2.04
S20N	2.58
S20D	2.42
S20G	2.29
S20W	4.33
S20H	2.25
S20M	2.08
S20Y	2.37
S20I	2.59
S20C	1.99
S20K	2.61
S20A	2.88
S20E	2.11
S20V	1.93
S20L	1.95
S23I	2.6
S23Y	2.35
S23L	2.34
S23G	1.91

Variant	protein stability index
S23Q	2.47
S23P	2.6
S23M	2.04
S23A	1.74
S23C	2.23
S23W	2.19
S23D	2.48
S23H	2.55
S23F	1.69
S23V	2.23
S23N	2.5
S23K	2.53
S23R	2.22
S23E	3.02
S23T	1.87
P21K	2.7
P21Q	2.2
P21V	2.33
P21I	2.38
P21N	2.16
P21Y	1.73
P21D	3.04
P21T	2.75
P21M	1.44

Variant	protein stability index
P21F	1.78
P21R	2.17
P21C	2.39
P21W	1.68
P21A	2.41
P21L	2.4
P21E	2.72
P21G	2.16
P21H	2.46
P21S	1.87
E24H	2.04
E24I	1.73
E24Q	2.37
E24K	1.82
E24S	2.07
E24A	2.06
E24M	1.68
E24T	1.97
E24L	1.72
E24Y	2.11
E24P	2.4
E24C	2.22
E24W	2.09
E24D	2.76

Variant	protein stability index
E24N	1.6
E24V	1.83
E24R	1.83
E24G	2.27
E24F	2.27
K16E	3.35
K16A	2.62
K16Y	1.72
K16N	2.63
K16H	4.02
K16T	2.22
K16D	3.04
K16I	1.77
K16C	2.07
K16R	2.27
K16M	2.43
K16V	1.94
K16Q	2.8
K16S	2.49
K16P	2.13
K16F	1.9
K16L	2.51
K16W	1.86
K16G	1.67

Variants of: B2
Assay: as above
Details: c terminus: a fixed tail appended

Variant	protein stability index
F11A	1.69
F11Y	1.27
F11L	1.98
F11H	2.37
F11I	2.38
F11K	1.35
F11E	1.49
F11P	1.89
F11W	2.28
F11N	2.49
F11D	1.78
F11S	1.13
H6L	3.15
H6E	3
H6S	2.21
H6F	2.33
H6C	1.2
H6K	2.33
H6T	1.94
H6Q	2.14
R10N	3.35
R10C	2.7
R10P	3.19
R10E	1.47

Variant	protein stability index
R10Q	2.27
R10T	2.93
R10G	4.76
R10S	3.52
R10A	2.32
R10K	2.21
R10V	2.19
R10H	2.59
R10D	2.03
R10M	1.76
R10I	1.96
F2A	1.63
F2W	2.28
F2S	1.02
F2I	2.17
F2L	2.32
F2K	2.65
F2N	2.23
F2P	3.35
F2M	1.81
F2H	1.85
F2C	3.44
F2E	1.31
F2D	2.19

Variant	protein stability index
K7T	3.37
K7G	3.09
K7Y	3.88
K7A	1.53
K7C	2.42
K7M	3.46
K7W	3.28
K7N	3.44
K7D	2.76
K7L	1.46
K7S	3.12
K7F	3.68
K7Q	2.38
A12H	3.79
A12T	2.65
A12C	2.93
A12G	1.57
A12I	3.53
A12E	1.93
A12Y	1.9
A12R	2.98
A12D	2.58
A12L	2.48
A12V	1.95

Variant	protein stability index
A12Q	2.33
A12K	1.46
T1K	2.48
T1N	1.89
T1A	2.71
T1Q	2.25
T1V	3.58
T1F	4.17
T1E	2.06
T1P	2.61
T1L	2.59
Y13A	1.36
D4L	3.29
D4P	2.46
D4T	2.54
D4Q	3.51
D4W	3.1
D4N	2.15
D4E	3.4
D4H	1.51
D4Y	3.19
D4K	2.06
G3N	1.98
G3R	1.52

Variant	protein stability index
G3V	3.29
G3D	2.11
G3I	2.42
G3E	2.98
G3K	1.74
G3A	1.83
G3S	2.45
G3W	2.33
G3F	1.39
G3P	2.48
D8S	2.76
D8R	2.96
D8Y	4.4
D8P	2.77
D8G	1.87
D8E	2.77
D8F	1.92
D8Q	4.86
D8H	2.82
D8W	3.29
D8L	4.19
D8N	2.29
R9D	3.4
R9T	1.42

Variant	protein stability index
R9I	3.77
R9P	3
R9K	1.97
R9V	3.55
R9H	3.56
R9Q	3.83
R9E	2.75
R9N	2.58
R9L	2.66
R9S	1.86
R9G	2.82
H5Q	2.74
H5L	2.09
H5F	2.45
H5W	3.81
H5A	2.25
H5R	2.59
H5Y	2.15
H5D	2.41
H5P	3.97
H5C	2.27
H5G	1.21
